Patent publication US20240294650A1 (Alector, published 2024)

Legend:
[1] = target: T1, recombinant murine MerTK extracellular domain (mouse, UniProt Q60805 19-497); test: SPR Carterra LSA, Ab immobilised
T1 construct: also called Mouse MerTK; murine MerTK ECD; not shown: polyHis or TEVS/Thrombin/murine IgG2a-Fc tag
T1 sequence: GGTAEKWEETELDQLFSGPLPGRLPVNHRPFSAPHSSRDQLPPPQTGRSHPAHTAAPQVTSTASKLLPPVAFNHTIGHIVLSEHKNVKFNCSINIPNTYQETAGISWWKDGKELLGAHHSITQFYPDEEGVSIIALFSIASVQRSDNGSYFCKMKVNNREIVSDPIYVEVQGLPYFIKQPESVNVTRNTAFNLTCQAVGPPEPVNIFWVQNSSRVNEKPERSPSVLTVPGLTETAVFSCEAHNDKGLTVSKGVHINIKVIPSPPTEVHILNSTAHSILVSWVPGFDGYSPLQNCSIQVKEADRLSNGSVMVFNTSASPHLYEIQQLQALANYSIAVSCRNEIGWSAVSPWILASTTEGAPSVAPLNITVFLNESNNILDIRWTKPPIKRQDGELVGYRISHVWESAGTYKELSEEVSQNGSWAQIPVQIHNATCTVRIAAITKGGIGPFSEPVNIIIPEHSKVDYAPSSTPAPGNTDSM
Procedure: Binding kinetics of anti-MerTK IgG1 antibodies of the present disclosure to human, cyno, and murine MerTK were evaluated using a Carterra LSA instrument (Carterra, Salt Lake City, UT). […] A HC200M sensor chip (Carterra) was activated using the single channel flow cell with a 7-minute injection of a 1:1:1 mixture of 100 mM MES pH 5.5, 100 mM sulfo-NHS, 400 mM EDC (all reconstituted in MES pH 5.5; 100 μl of each mixed in vial immediately before running assay). After switching to the multi-channel array flow cell, the antibodies were injected over the activated chip in three 96-spot arrays for 10 minutes each. The remaining unconjugated active groups on the chip were then blocked by injecting 1M Ethanolamine pH 8.5 (Carterra) for 7 minutes using the single channel flow cell. The resulting sensor chip contained three spots for each antibody, at three different densities. Two independent experiments were performed as follows, resulting in an N of between one and six determinations for each antibody. Spots that yielded less than 25 RU of analyte binding were excluded from further analysis.
After priming with running buffer (HBS-TE, Carterra) with 0.5 mg/ml BSA (Sigma), the immobilized anti-MerTK antibodies were tested for their ability to bind to several forms of recombinant MerTK extracellular domain, including human, cynomolgus, and mouse orthologs as described above. Estimates of affinity were generated by injecting each analyte over the entire antibody array using the single channel flow cell. MerTK analytes were diluted with running buffer, in a series of six, three-fold serial dilutions starting from 1 μM for human and cynomolgus MerTK, and 600 nM for mouse MerTK. Analytes were injected for 5 minutes, and dissociation was followed for 10 minutes. After each analyte injection, antibodies were regenerated with either Protein A/G Elution Buffer (Thermo) with 1M NaCl (Teknova), or with 10 mM Glycine pH 2.5. Three buffer blanks were run between each series (one species per series). Data were processed and analyzed using NextGenKIT high-throughput kinetics analysis software (Carterra).

[2] = target: T2, endogenous murine MerTK on bone marrow-derived macrophages (mouse, UniProt Q60805 19-994); test: FACS, mouse BMDM, WT minus MerTK KO
T2 construct: whole, on cells; MFI on MerTK KO BMDM subtracted; also called BMDM WT-KO
T2 sequence (looked up): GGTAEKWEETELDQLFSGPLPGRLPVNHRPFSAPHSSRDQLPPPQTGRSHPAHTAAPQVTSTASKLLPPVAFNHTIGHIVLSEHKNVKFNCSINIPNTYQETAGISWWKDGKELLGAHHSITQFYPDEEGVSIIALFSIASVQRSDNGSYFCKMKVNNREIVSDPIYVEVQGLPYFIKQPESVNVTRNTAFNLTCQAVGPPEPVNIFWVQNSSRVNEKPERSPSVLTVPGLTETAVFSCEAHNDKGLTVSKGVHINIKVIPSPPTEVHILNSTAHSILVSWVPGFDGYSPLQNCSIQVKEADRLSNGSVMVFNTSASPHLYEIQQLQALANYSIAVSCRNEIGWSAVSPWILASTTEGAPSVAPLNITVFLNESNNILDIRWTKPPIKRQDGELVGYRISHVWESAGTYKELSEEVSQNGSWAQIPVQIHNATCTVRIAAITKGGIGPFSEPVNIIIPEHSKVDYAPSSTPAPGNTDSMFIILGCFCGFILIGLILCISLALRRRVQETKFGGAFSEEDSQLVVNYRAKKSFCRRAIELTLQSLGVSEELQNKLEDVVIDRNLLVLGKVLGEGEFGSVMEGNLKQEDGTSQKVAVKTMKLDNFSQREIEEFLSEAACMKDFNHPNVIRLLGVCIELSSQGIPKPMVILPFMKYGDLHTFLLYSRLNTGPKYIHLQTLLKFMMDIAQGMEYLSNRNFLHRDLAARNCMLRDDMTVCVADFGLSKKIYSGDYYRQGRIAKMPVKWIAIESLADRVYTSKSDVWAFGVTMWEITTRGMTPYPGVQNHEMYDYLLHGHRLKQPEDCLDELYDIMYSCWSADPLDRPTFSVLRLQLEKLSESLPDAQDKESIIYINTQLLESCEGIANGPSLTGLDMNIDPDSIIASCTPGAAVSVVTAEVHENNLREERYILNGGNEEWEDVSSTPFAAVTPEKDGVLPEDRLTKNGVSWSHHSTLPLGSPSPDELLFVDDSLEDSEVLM
Procedure: To determine whether recombinant anti-human MerTK antibodies of the present disclosure bind to human MerTK endogenously expressed on SK-MEL-5 cells and CHO cells overexpressing mouse MerTK (CHO-muMerTK OE cells), as compared to A375 and parental CHO cells as negative controls, the following experiments were performed. SK-MEL-5 cells, A375 cells, CHO-muMerTK OE cells, and CHO parental cells were plated at 100,000 cells/well. Anti-MerTK antibodies were added to the cells at 10 μg/ml. After 60 minutes on ice, cells were washed and then stained with PE-conjugated goat anti-human IgG antibody (Southern Biotech Cat #2040-09, Birmingham, AL) in the presence of Fc block solution on ice for 30 minutes, and then washed twice with cold FACS buffer (2% FBS in PBS). Mouse anti-human MerTK-PE conjugated (Biolegend, Clone 590H11G1E3) or anti-mouse MerTK-PE conjugated (ThermoFisher, Clone DS5MMER) antibodies were used as positive controls. Stained cells were acquired on a BD FACS Canto II cytometer and the mean fluorescence intensity (MFI) was calculated with FlowJo.
To confirm anti-MerTK antibody binding to endogenous murine MerTK, bone marrow-derived macrophages (BMDM) were isolated from MerTK wild type (WT) and knockout (KO) mice (The Jackson Laboratory, Cat #011122) using standard protocols. Briefly, cells isolated from the bone marrow were plated in the presence of 50 ng/ml M-CSF (R&D Systems, Cat #416-ML) for seven days to allow for differentiation into macrophages. Cell staining, FACs, and MFI were performed and calculated as described above.

[3] = target: T3, His tag-conjugated recombinant ProS (human, UniProt P07225 42-676, limits assumed); test: ELISA, captured Ab, ProS-His 10 ug/ml, no MerTK
T3 construct: bought; also called Protein S; ProS1 (R&D systems, Cat #9489-PS-100)
T3 sequence (looked up): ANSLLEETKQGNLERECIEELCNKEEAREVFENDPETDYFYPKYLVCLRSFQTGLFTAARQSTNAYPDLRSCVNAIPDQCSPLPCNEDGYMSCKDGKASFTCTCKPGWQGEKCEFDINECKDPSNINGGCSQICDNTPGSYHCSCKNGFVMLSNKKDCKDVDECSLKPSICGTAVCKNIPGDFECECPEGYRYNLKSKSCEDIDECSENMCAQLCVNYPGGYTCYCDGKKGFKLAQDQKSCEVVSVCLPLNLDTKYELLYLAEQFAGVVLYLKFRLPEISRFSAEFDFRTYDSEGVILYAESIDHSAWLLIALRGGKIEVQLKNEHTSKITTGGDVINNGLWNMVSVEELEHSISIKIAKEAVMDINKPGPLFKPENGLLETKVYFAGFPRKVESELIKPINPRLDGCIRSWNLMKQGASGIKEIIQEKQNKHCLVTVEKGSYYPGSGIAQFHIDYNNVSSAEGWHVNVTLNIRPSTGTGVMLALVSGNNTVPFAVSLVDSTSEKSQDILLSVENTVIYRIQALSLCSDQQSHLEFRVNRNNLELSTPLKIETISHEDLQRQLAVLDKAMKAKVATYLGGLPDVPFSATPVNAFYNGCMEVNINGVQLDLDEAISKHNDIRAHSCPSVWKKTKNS

[4] = target: T4, Full Axl (ECD domain of human Axl) (human, UniProt P30530 26-451); test: SPR (data not shown)
T4 construct: also called human Axl ECD
T4 sequence: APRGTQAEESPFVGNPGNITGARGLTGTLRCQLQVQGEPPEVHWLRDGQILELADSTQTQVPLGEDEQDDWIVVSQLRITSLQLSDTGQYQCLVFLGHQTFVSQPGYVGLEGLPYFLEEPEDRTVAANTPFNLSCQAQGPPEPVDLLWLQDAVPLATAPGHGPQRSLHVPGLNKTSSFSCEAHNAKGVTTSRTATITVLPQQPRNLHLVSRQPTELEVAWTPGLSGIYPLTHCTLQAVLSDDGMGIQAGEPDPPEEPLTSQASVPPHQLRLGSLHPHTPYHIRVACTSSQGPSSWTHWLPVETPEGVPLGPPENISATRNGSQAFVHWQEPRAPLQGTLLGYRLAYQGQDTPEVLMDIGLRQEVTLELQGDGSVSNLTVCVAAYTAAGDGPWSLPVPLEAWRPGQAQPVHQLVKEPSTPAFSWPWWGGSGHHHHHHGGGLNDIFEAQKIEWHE
Procedure: (§1) Binding of anti-MerTK antibodies of the present disclosure to these domain-swapped chimera or deletion mutants was tested by Surface Plasmon Resonance (SPR) using Carterra LSA. Purified anti-MerTK antibodies were immobilized in duplicate on a HC30M chip (Carterra) by amine coupling, following the manufacturer's instructions (described previously).
(§2) Supernatants containing the constructs were diluted 1:1 with running buffer containing 0.5 mg/mL BSA (HBS-TE, Carterra; BSA, Sigma) and injected over the immobilized antibodies. The surface was regenerated with 10 mM Glycine pH2.0 after each construct injection. Sensorgrams were analyzed using Carterra Epitope software to identify patterns of construct binding. Loss of binding to MerTK constructs with domains deleted or swapped in from Axl and/or gain of binding to Axl constructs with MerTK domains swapped in were evaluated. Data from these studies were used to construct a domain binding map for anti-MerTK antibodies and their binding to various domains of human MerTK.

[5] = target: T5, MerTK N-terminal ECD Half-and-half chimera (human); test: SPR, construct supernatant over immobilised Ab
T5 construct: tested as culture supernatant; also called MerTK N-term half-and-half chimera; MerTK N-terminal ECD (NT-Ig1-Ig2) + Axl C-terminal ECD (FN1-FN2-JM)
T5 chain: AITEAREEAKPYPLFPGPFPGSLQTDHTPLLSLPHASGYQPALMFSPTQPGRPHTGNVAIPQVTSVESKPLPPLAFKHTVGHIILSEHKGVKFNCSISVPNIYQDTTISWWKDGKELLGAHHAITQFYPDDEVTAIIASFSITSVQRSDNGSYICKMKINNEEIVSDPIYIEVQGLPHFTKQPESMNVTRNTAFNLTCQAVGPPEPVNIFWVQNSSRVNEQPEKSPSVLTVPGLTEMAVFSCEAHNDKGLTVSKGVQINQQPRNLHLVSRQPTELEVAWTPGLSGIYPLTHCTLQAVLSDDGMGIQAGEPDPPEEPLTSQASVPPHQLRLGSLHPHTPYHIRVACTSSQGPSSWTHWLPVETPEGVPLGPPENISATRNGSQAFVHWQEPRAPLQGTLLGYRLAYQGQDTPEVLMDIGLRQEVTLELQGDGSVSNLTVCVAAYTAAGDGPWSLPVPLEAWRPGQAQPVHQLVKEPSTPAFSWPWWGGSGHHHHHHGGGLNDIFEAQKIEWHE
Procedure: as §1, §2

B1: MTK-232 (antibody, human IgG1, V domains shown)
VH: EVQLQESGPSLVKPSQTLSLTCSVTGDSITSGYWNWIRKFPGNKLEYMGYINYSGSTNYNPSLKSRISITRDTSKNQYYLQLNSVTTEDTATYYCARWNYLYYFDYWGQGTTLTVSS
VL: DSVMTQSHKFMSTLVGDRVSITCKASQDVGTAVAWYQQKPGQSPKVLIYWASTRHTGVPDRFTGSGSGTDFTLTITNVQSEDLADYFCHQYSTYPYTFGGGTKLEIK
For B1, the binding result [1] was “no binding (tested: analyte up to 600 nM)”, the MFI [2] was 412 MFI and the binding result [3] was “binds”.

B2: MTK-217 (antibody, human IgG1, V domains shown)
VH: QVQLQQPGTEVVKPGASVKMSCRASGYTFTSYWITWVKQRPGQGLEWIGDIHPGSGINNYNEKFRSKATLTVDTSSSTVYMELSSLTSEDSAVYYCAKGGYYGSSYYVMDYWGQGTSVTVSS
VL: DILLTQSPAILSVSPGERVSFSCRASQTIGTSIHWYQQRTNDSPRLLIKYASESISGIPSRFSGSGSGTDFTLSINSVESEDIADYYCQQSNDWPYTFGGGTKLEIK
B2: no binding (tested: analyte up to 600 nM) [1]; no binding [4]; no binding [5].
